For series [1], the target named is T1, PFV-1 IN (integrase) (PFV-1, UniProt P14350 752-1143). The series is described as follows: SPR imaging; KD1, fast phase of two-phase fit; 200 nM IN; ka1 2.2e5 M-1s-1, kd1 5.8e-3 s-1; 10 mM MgCl2; 20 mM Hepes pH 8, 10 mM MgCl2, 100 mM NaCl, 25 ul/min; EG4-pretreated gold SPRi surface; temperature not given. To be noted: protein: recombinant; label: none (immobilized on gold via 5' thiol); 5' overhang 5 nt (T5 spacer) on strand 1, other end blunt.

For series [2], the target named is T1, PFV-1 IN (integrase). The series is described as follows: SPR imaging; 4 nM IN, monophasic; 5 uM dsDNA spots; ka 3.7e6 M-1s-1, kd 1.8e-3 s-1; text prints 4.9e-9 M but the rates give 4.9e-10; 10 mM MgCl2; 20 mM Hepes pH 8, 10 mM MgCl2, 100 mM NaCl, 25 ul/min; EG4-pretreated gold SPRi surface; temperature not given. To be noted: protein: recombinant; label: none (immobilized on gold via 5' thiol); 5' overhang 5 nt (T5 spacer) on strand 1, other end blunt.

Among the data in PMC3440434, “Efficient Antifouling Surface for Quantitative Surface Plasmon Resonance Based Biosensor Analysis” are Kd values, retold here.

B1: SH-5T-dsDNA (random 38 bp) (dsDNA)
DNA 1: TTTTTCTAAGCTAGAAGATTACTCCAAGTACATAATCTAAAAT
DNA 2: ATTTTAGATTATGTACTTGGAGTAATCTTCTAGCTTAG
modifications: 5' thiol-C6 on strand 1
For orientation: Kd means a measure of binding affinity in units of concentration. B1: the Kd was 26 nM with PFV-1 IN (integrase) [1] and 0.49 nM with PFV-1 IN (integrase) [2].
